Measured values from patent US6037158A, “Alcohol dehydrogenase and its use for the enzymatic production of chiral hydroxy compounds” (priority 1996, dated 2000).
Like-named read-outs stand apart in the source and are kept apart here.

Columns and labels:
[1] = Temperature optimum of enzyme activity; format: biochemical
[2] = Temperature stability of the alcohol dehydrogenase (30 min at temperature, measured at 30° C.); format: physicochemical
Method: The temperature stability in the range of 25 to 70° C. was determined in an analogous manner to that described under A. The homogeneous enzyme solution was subjected for 30 min to the recited temperatures and subsequently measured directly at 30° C. with the above test mixture. […] In contrast the ADH from L. kefir is only stable up to 40° C. with a maximum at 37° C., afterwards the activity decreases rapidly. The maximum for this enzyme is at 37° C.

[3] = target: T1, alcohol dehydrogenase from L. brevis (Levilactobacillus brevis, UniProt Q84EX5); assay: biochemical; format: biochemical; conditions: for Activity: 0.19 mM NADPH, pH 7.0, purified enzyme diluted 1:10; for activity at 10000 µM: read-out: Relative act.
T1 sequence (Q84EX5 2-252): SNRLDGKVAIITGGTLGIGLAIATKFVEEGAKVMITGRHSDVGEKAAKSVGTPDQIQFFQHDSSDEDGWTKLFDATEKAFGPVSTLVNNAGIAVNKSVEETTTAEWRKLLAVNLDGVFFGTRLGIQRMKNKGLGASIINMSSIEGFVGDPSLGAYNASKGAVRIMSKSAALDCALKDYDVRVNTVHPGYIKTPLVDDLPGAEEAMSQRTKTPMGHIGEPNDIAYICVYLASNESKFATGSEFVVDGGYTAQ
Method: A series of other ketones and keto esters were used instead of acetophenone and it was tested whether these can be reduced by enzyme catalysis.
The following test mixture was used for this:
970 μl triethanolamine buffer (50 mM; pH 7.0, containing 10 mM keto compound)
20 μl NADPH (0.19 mM in the test)
Some of the ketones were also tested at a concentration of 1 mM in order to verify a possible substrate inhibition at 10 mM.

[4] = pH stability of the alcohol dehydrogenase (30 min incubation, then standard acetophenone test); format: physicochemical; conditions: for Activity: 30 min
Method: The dependence of the activity of the enzyme when stored in buffers with various pH values was examined in the range of pH 4 to 11. Depending on the buffer capacity various buffers in the pH range of 4 to 11 were prepared and the homogeneous enzyme was incubated therein for 30 minutes. 1 μl thereof was removed and added to the normal test reagent mixture of 970 μl triethanolamine buffer (100 mM; pH 7.0 containing 11 mM acetophenone) and 20 μl NADPH (final concentration 0.19 mM). The reaction was monitored for 1 minute at 30° C. and 340 nm.

[5] = Standard enzyme test of purified enzyme (acetophenone, NADPH); format: biochemical
Method: The process for the isolation and purification of the ADH enzyme proceeds essentially via the following process steps: disruption of the cultured cells, such as by glass beads, carrying out hydrophobic chromatography or interaction chromatography and followed by subsequent anion exchange and affinity chromatography. In particular it has proven to be advantageous when all homogenization and elution buffers contain from about 0.5 to about 5 mM magnesium. In this connection a Mg^2+ concentration of about 1 mM has proven to be particularly advantageous. In this manner an enzyme is obtained which has a specific activity of at least 400 U/mg and in many cases up to 500 U/mg.
The enzyme was released from the cells by wet-grinding with the aid of glass beads (0.3 mm), but can also be achieved by any other method for disrupting bacterial cells. The bacterial mass is diluted to a 40% suspension with 0.1 M acetate buffer pH 4.0+1 mM MgCl2 supplemented with an antifoaming agent (polypropylene glycol). This was subjected to a 20 minute disruption while cooling continuously in a disintegrator (IMA Co.) at 4000 rpm with addition of glass beads in a ratio of 1:2. 8 g bacteria yielded 10 ml crude extract with a volume activity of 40 U/ml and a protein content of ca. 3 mg/ml. […]

[6] = relative to acetophenone = 100, 10 mM keto compound

Molecule: alcohol dehydrogenase from Lactobacillus kefir: NADP-dependent R-alcohol dehydrogenase from Lactobacillus kefir (DE 40 14 573 C1), comparison enzyme [reference compound]
- optimal test temperature (activity maximum) [1]: 37 °C
- act. (temperature optimum) ([1]; test temperature 20° C.): 28.0 U/ml
- act. (temperature optimum) ([1]; test temperature 25° C.): 28.2 U/ml
- act. (temperature optimum) ([1]; test temperature 30° C.): 35.2 U/ml
- act. (temperature optimum) ([1]; test temperature 35° C.): 36.2 U/ml
- act. (temperature optimum) ([1]; test temperature 40° C.): 34.4 U/ml
- act. (temperature optimum) ([1]; test temperature 45° C.): 35.4 U/ml
- act. (temperature optimum) ([1]; test temperature 50° C.): 26.0 U/ml
- act. (temperature optimum) ([1]; test temperature 55° C.): 3.0 U/ml
- act. (temperature optimum) ([1]; test temperature 60° C.): 0 U/ml
- temperature at which the enzyme is inactivated by 50% (thermal deactivation) [2]: 45 °C
- temperature of maximum stability ([2]; 30 min): 37 °C
- temperature range in which the enzyme is stable ([2]; 30 min): up to 40 °C
- act. (temperature stability) ([2]; 30 min at 25° C.): 36.5 U/ml
- act. (temperature stability) ([2]; 30 min at 30° C.): 30.2 U/ml
- act. (temperature stability) ([2]; 30 min at 37° C.): 35.8 U/ml
- act. (temperature stability) ([2]; 30 min at 40° C.): 32 U/ml
- act. (temperature stability) ([2]; 30 min at 45° C.): 26.2 U/ml
- act. (temperature stability) ([2]; 30 min at 50° C.): 2.4 U/ml
- act. (temperature stability) ([2]; 30 min at 55° C.): 0 U/ml

Molecule: CCOC(=O)C(=O)CCc1ccccc1 [ethyl-2-oxo-4-phenyl butyrate]
- Activity ([3]; 10 mM keto compound): 0.40 U/ml
- Relative act. [3, 6]: 12%

Molecule: CC(=O)CO [hydroxyacetone]
- Activity ([3]; 10 mM keto compound): 0.74 U/ml
- activity at 10000 µM [3, 6]: 23%

Molecule: CCC(=O)CC(=O)OC [3-oxo-n-valeric acid methyl ester]
- Activity ([3]; 10 mM keto compound): 2.26 U/ml
- activity at 10000 µM [3, 6]: 69%

Molecule: ketovaleric acid
- Activity ([3]; 10 mM keto compound): 0.27 U/ml
- Relative act. [3, 6]: 8%

Molecule: C(CCOCC1CO1)COCC1CO1 (centres unmarked) [1,4-butanediol-diglyceridyl ether]
- Activity ([3]; 10 mM keto compound): 0.77 U/ml
- activity at 10000 µM [3]: 24%

Molecule: CC(=O)c1cccc2ccccc12 [methyl-1-naphthyl ketone]
- Activity ([3]; 10 mM keto compound): 1.21 U/ml
- activity at 10000 µM [3, 6]: 37%

Molecule: CC(=O)CCCC(=O)O [4-acetylbutyric acid]
- Activity ([3]; 10 mM keto compound): 0.32 U/ml
- activity at 10000 µM [3, 6]: 10%

Molecule: CC(=O)CC(C)=O [2,4-pentanedione]
- Activity ([3]; 10 mM keto compound): 4.22 U/ml
- activity at 10000 µM [3]: 130%

Molecule: CC(=O)CC(=O)OCc1ccccc1 [aceto acetic acid benzyl ester]
- Activity ([3]; 10 mM keto compound): 4.11 U/ml
- activity at 10000 µM [3, 6]: 126%

B1: alcohol dehydrogenase from Lactobacillus brevis: stable R-specific NADP-dependent alcohol dehydrogenase purified to homogeneity from Lactobacillus brevis DSM 20054 (protein)
chain: MSNRLDGKVAIITGGTLGIGLAIATKFVEEGAKVMITGRHSDVGEKAAKSVGTPDQIQFFQHDSSDEDGWTKLFDATEKAFGPVSTLVNNAGIAVNKSVEETTTAEWRKLLAVNLDGVFFGTRLGIQRMKNKGLGASIINMSSIEGFVGDPSLGAYNASKGAVRIMSKSAALDCALKDYDVRVNTVHPGYIKTPLVDDLPGAEEAMSQRTKTPMGHIAEPNDIAYICVYLASNESKFATGSEFVVDGGYTAQ
- optimal test temperature (activity maximum) [1]: 50 °C
- optimal test temperature (activity maximum) ([1]; listed as enzyme according to the invention): ca. 50 °C
- act. (temperature optimum) ([1]; test temperature 25° C.): 10.31 U/ml
- act. (temperature optimum) ([1]; test temperature 30° C.): 9.66 U/ml
- act. (temperature optimum) ([1]; test temperature 37° C.): 9.76 U/ml
- act. (temperature optimum) ([1]; test temperature 40° C.): 17.78 U/ml
- act. (temperature optimum) ([1]; test temperature 42° C.): 16.93 U/ml
- act. (temperature optimum) ([1]; test temperature 45° C.): 18.06 U/ml
- act. (temperature optimum) ([1]; test temperature 47° C.): 19.13 U/ml
- act. (temperature optimum) ([1]; test temperature 50° C.): 31.46 U/ml
- act. (temperature optimum) ([1]; test temperature 55° C.): 24.48 U/ml
- act. (temperature optimum) ([1]; test temperature 60° C.): 23.69 U/ml
- act. (temperature optimum) ([1]; test temperature 65° C.): 1.98 U/ml
- act. (temperature optimum) ([1]; test temperature 70° C.): 0.58 U/ml
- Activity ([4]; pH 4.0, Na acetate/acetic acid): 6.86 U/ml
- pH value of maximum stability (larger maximum) ([4]; pH 4 to 11, 30 min): 9.0
- pH value of the smaller maximum of pH stability ([4]; pH 4 to 11, 30 min): 5.5
- pH value of maximum stability (larger maximum) ([4]; pH 4 to 11, 30 min, listed as ADHs according to the invention): about 9.0
- Activity ([4]; pH 4.5, Na acetate/acetic acid): 6.22 U/ml
- Activity ([4]; pH 5.0, MES/NaOH): 7.04 U/ml
- Activity ([4]; pH 5.5, MES/MaOH): 8.73 U/ml
- Activity ([4]; pH 6.0, triethanolamine/NaOH): 5.58 U/ml
- Activity ([4]; pH 6.5, triethanolamine/NaOH): 5.80 U/ml
- Activity ([4]; pH 7.0, triethanolamine/NaOH): 6.57 U/ml
- Activity ([4]; pH 7.5, Tris/HCl): 5.04 U/ml
- Activity ([4]; pH 8.0, Tris/HCl): 3.83 U/ml
- Activity ([4]; pH 8.5, Tris/HCl): 8.42 U/ml
- Activity ([4]; pH 9.0, Tris/HCl): 17.11 U/ml
- Activity ([4]; pH 10.0, glycine/NaOH): 1.25 U/ml
- Activity ([4]; pH 11.0, glycine/NaOH): 2.43 U/ml
- temperature at which the enzyme is inactivated by 50% (thermal deactivation) [2]: about 65 °C
- retained activity ([2]; 50 mM MES buffer, about 30 minutes, between 25° C. and 60° C.): over 95%
- temperature of maximum stability ([2]; 30 min): 40 °C
- temperature of maximum stability ([2]; 30 min, listed as enzyme according to the invention): ca. 40 °C
- act. (temperature stability) ([2]; 30 min at 25° C.): 9.43 U/ml
- act. (temperature stability) ([2]; 30 min at 30° C.): 8.74 U/ml
- act. (temperature stability) ([2]; 30 min at 37° C.): 12.06 U/ml
- act. (temperature stability) ([2]; 30 min at 40° C.): 12.15 U/ml
- act. (temperature stability) ([2]; 30 min at 42° C.): 11.16 U/ml
- act. (temperature stability) ([2]; 30 min at 45° C.): 10.81 U/ml
- act. (temperature stability) ([2]; 30 min at 47° C.): 8.23 U/ml
- act. (temperature stability) ([2]; 30 min at 50° C.): 8.37 U/ml
- act. (temperature stability) ([2]; 30 min at 60° C.): 8.51 U/ml
- act. (temperature stability) ([2]; 30 min at 70° C.): 0.56 U/ml
- specific activity [5]: at least 400 U/mg
